{"source": "paper PMC6077249", "about": "“Insights into Centromere DNA Bending Revealed by the Cryo-EM Structure of the Core Centromere Binding Factor 3 with Ndc10”", "key": {"Cep3 full length": {"biological_target": "Cep3 full length (Saccharomyces cerevisiae, UniProt P40969 1-608)", "sequence (P40969 whole entry)": "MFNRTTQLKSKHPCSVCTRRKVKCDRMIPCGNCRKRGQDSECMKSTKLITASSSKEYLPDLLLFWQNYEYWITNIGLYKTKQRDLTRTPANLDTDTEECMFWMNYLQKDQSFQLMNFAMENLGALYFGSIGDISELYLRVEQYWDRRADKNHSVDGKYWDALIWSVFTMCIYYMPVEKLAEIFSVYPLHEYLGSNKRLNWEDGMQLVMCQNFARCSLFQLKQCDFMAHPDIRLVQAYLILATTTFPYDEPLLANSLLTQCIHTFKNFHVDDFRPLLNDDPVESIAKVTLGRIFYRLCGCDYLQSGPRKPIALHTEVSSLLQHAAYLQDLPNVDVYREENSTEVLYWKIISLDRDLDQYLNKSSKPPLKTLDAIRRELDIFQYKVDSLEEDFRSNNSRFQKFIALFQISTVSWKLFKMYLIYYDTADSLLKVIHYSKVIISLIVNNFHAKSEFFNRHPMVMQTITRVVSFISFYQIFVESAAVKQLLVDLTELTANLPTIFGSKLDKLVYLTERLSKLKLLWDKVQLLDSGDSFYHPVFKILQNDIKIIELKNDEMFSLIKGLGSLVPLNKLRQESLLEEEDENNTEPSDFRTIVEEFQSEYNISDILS", "test": "EMSA; DNA 1.6 uM, protein 6.4 uM; binds tightly; EMSA: 25 mM HEPES pH 8.0, 200 mM KCl, 2 mM DTT, 10% glycerol, 0.02% NP-40, 10 mM MgCl2, 10 uM ZnCl2; room temperature 45 min; native PAGE at 4 C", "details": "protein: recombinant; tags: N-terminal His; chain copies: 2; label: fluorescent label, singly or doubly labeled"}, "Cep3ΔN": {"biological_target": "Cep3ΔN (Saccharomyces cerevisiae, UniProt P40969 47-608)", "sequence (P40969 47-608, stated change not applied)": "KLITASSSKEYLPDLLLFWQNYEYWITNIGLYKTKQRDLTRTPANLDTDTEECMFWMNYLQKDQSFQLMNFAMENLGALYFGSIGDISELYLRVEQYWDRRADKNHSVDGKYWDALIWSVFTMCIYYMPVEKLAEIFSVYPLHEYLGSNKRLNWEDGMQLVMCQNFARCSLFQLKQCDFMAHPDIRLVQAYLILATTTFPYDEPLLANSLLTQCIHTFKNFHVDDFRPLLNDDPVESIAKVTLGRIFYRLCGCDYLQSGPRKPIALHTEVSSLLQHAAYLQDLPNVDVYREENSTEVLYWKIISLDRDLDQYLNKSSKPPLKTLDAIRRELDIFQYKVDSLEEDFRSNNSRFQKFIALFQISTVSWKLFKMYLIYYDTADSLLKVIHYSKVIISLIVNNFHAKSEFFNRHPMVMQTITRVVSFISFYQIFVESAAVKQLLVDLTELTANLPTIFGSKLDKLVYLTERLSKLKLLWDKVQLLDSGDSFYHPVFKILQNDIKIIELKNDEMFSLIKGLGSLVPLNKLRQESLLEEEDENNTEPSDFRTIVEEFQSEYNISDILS", "test": "EMSA; DNA 1.6 uM; EMSA: 25 mM HEPES pH 8.0, 200 mM KCl, 2 mM DTT, 10% glycerol, 0.02% NP-40, 10 mM MgCl2, 10 uM ZnCl2; room temperature 45 min; native PAGE at 4 C", "details": "protein: recombinant; tags: N-terminal His; chain copies: 2; label: fluorescent label, singly or doubly labeled"}, "Ctf13;Skp1;Cep3ΔN [1]": {"biological_target": "T1, Ctf13;Skp1;Cep3ΔN (Saccharomyces cerevisiae;Saccharomyces …, UniProt P35203;P52286;P40969 1-478;1-194;47-608, ||)", "T1 sequence (P35203 whole entry, stated change not applied, chain 1 of 3)": "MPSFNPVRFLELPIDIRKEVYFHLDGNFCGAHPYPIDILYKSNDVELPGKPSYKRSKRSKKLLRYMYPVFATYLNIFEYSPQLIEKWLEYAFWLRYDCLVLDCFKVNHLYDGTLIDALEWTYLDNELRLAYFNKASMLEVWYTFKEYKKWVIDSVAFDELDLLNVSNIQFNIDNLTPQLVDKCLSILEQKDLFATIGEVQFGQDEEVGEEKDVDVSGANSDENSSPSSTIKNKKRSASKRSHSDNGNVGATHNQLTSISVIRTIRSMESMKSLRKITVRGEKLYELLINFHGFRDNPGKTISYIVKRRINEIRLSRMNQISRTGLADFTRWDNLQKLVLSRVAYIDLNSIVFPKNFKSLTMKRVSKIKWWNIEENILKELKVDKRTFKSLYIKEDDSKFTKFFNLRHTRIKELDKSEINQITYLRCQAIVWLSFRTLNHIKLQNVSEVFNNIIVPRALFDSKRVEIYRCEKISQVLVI", "T1 sequence (P52286 whole entry, stated change not applied, chain 2 of 3)": "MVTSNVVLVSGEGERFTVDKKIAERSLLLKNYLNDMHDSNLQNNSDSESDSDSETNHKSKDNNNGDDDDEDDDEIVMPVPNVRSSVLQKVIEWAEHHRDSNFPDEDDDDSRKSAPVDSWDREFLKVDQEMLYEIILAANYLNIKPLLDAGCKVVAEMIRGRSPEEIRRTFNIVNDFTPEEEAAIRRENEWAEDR", "T1 sequence (P40969 47-608, stated change not applied, chain 3 of 3)": "as the sequence (P40969 47-608, stated change not applied) above", "test": "EMSA; DNA 1.6 uM; EMSA: 25 mM HEPES pH 8.0, 200 mM KCl, 2 mM DTT, 10% glycerol, 0.02% NP-40, 10 mM MgCl2, 10 uM ZnCl2; room temperature 45 min; native PAGE at 4 C", "details": "protein: recombinant;recombinant;recombinant; tags: C-terminal CBP;;N-terminal His; copies: 1;1;2; label: fluorescent label, singly or doubly labeled"}, "Ctf13;Skp1;Cep3ΔN [2]": {"biological_target": "T1, Ctf13;Skp1;Cep3ΔN", "test": "competition; 80 uM unlabeled competitor, 50x; competes labeled CDEIII; EMSA: 25 mM HEPES pH 8.0, 200 mM KCl, 2 mM DTT, 10% glycerol, 0.02% NP-40, 10 mM MgCl2, 10 uM ZnCl2; room temperature 45 min; native PAGE at 4 C", "details": "protein: recombinant;recombinant;recombinant; tags: C-terminal CBP;;N-terminal His; copies: 1;1;2"}}}
{"binder": "CDEIII labeled (dsDNA) DNA 1: AATATTAGTGTATTTGATTTCCGAAAGTTAAA DNA 2: TTTAACTTTCGGAAATCAAATACACTAATATT", "values": [{"measurement": "binding result", "setting": "Cep3 full length", "value": "binds"}, {"measurement": "binding result", "setting": "Cep3ΔN", "value": "no binding"}, {"measurement": "binding result", "setting": "Ctf13;Skp1;Cep3ΔN [1]", "value": "binds"}]}
{"binder": "CDEIII unlabeled competitor (dsDNA) DNA 1: AATATTAGTGTATTTGATTTCCGAAAGTTAAA DNA 2: TTTAACTTTCGGAAATCAAATACACTAATATT", "values": [{"measurement": "binding result", "setting": "Ctf13;Skp1;Cep3ΔN [2]", "value": "binds"}]}
